Assay [1] has as its target T1, GST-AFF1 (AUXIN RESPONSE FACTOR F-BOX1, At3g49150) (Arabidopsis thaliana (Mouse-ear cress), UniProt Q9M3B7).
T1 chain: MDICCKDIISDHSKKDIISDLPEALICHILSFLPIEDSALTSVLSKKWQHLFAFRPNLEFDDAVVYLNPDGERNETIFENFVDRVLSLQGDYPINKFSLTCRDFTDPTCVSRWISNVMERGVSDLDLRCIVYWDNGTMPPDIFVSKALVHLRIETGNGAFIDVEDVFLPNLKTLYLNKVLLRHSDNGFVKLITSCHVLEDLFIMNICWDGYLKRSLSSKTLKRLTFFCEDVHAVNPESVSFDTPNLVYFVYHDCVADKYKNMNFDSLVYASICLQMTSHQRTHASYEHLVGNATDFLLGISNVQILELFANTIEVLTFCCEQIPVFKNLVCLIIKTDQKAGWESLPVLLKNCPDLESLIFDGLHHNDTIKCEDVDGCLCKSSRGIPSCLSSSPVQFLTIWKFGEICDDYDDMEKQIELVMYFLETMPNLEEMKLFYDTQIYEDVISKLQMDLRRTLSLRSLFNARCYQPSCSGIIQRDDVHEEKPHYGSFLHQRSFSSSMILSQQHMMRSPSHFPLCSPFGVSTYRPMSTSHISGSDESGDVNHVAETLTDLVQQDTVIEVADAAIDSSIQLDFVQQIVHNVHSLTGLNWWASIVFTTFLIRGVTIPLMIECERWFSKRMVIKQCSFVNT
The experiment in a line: GST pull-down with immunoblot. (In western blotting, separated proteins are transferred to a membrane and probed.)

For assay [2], the target named is T2, GST-AFF1 (AUXIN RESPONSE FACTOR F-BOX1, At3g49150) (Arabidopsis thaliana, UniProt Q9M3B7 1-630).
T2 construct: AUXIN RESPONSE FACTOR F-BOX1 (AFF1), F-box protein encoded by At3g49150, Arabidopsis thaliana; also called GST-AFF1 recombinant protein; not shown: GST, N-terminal, kept
T2 sequence (looked up): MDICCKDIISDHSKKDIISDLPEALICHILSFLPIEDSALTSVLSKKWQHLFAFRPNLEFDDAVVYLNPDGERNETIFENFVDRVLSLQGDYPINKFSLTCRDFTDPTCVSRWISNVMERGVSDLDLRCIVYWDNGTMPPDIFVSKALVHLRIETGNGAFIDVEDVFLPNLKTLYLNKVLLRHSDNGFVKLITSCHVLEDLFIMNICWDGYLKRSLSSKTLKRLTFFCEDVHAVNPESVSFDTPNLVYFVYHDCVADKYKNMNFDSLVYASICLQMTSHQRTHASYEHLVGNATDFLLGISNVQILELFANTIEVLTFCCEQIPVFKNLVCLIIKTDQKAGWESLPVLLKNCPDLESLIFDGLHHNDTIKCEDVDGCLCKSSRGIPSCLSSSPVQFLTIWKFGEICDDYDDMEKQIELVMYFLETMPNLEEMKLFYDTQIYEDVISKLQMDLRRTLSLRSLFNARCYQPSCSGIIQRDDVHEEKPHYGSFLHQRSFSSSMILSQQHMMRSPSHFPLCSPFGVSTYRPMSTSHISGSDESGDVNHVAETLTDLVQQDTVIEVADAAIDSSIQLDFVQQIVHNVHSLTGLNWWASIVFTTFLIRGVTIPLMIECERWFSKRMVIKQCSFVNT
The assay is described as follows: pull-down; 2 μg GST fusion immobilised on glutathione agarose, mixed with 2 μg His-ASK1, 4 °C, 2 hr; six washes; immunoblot with anti-His and anti-GST. Particulars: both partners purified.

B1: His-ASK1 (ARABIDOPSIS SKP1-LIKE 1) (natural protein, UniProt Q39255 1-160, looked up)
chain: MSAKKIVLKSSDGESFEVEEAVALESQTIAHMVEDDCVDNGVPLPNVTSKILAKVIEYCKRHVEAAASKAEAVEGAATSDDDLKAWDADFMKIDQATLFELILAANYLNIKNLLDLTCQTVADMIKGKTPEEIRTTFNIKNDFTPEEEEEVRRENQWAFE
notes: ARABIDOPSIS SKP1-LIKE (ASK1), Arabidopsis thaliana; not shown: His, N-terminal, kept
For the molecule B1, the binding result in assay [1] and in assay [2] was “binds” in each case.

The record behind these values is PMC9273615, “Regulation of AUXIN RESPONSE FACTOR condensation and nucleo-cytoplasmic partitioning” (Nature Communications, 2022).
